Assay [1] concerns the target human lymphoma (HH) cell line (human). Description: binding to HH cells, dose-dependent (FIG. 5); receptor on the cells not named.
Assay [2] addresses T1, IL-2/15Rβ (CD122) ECD (human) (UniProt P14784).
T1 sequence: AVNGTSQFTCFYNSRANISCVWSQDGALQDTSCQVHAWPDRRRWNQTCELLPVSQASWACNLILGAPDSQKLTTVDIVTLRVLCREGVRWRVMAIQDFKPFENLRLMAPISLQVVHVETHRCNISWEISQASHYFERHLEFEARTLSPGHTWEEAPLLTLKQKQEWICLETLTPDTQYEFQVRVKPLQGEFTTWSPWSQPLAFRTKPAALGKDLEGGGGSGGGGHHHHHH
Kind of assay: SPR, Biacore 8K, complex captured on anti-human Fc CM5 chip, receptor ECD-His injected; ka and kd printed as NA.

B1: W327151-BMK1 (XENP24306) (Fc fusion, part only; not given: IL-15Ralpha-Fc chain, linker and Fc, not shown: a dimerising Fc or GST)
chain, part: NWVNVISDLKKIEDLIQSMHIDATLYTESNVHPSCKVTAMKCFLLELQVISLESGDASIHDTVQDLIILANNSLSSNGNVTESGCKECEELEEKNIKEFLQSFVHIVQMFINTS
With B1, the EC50 (in general, the concentration giving half of the maximal effect) in assay [1] was determined as 0.172 µM. Moreover, the Kd – broadly, the constant that tells how readily two partners part at equilibrium – in assay [2] was found to be 8.58 µM.

For the origin of these results see US20250145679A1.
